System: Escherichia coli TOP10
Assay: shrunken log2 fold change of peptide-encoding DNA abundance (4.5 h post-induction vs induction); higher = less antimicrobial activity (less host growth inhibition)
Settings: time post-induction: 4.5 h; library: site-saturation at positions 5, 18, 19, 20
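Note: peptides expressed intracellularly from a pBAD plasmid library in pooled LB shake-flask culture, induced with 0.3% L-arabinose, DNA abundance read by NGS, three biological replicates, DESeq2 with apeglm shrinkage.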

RRIRYRPPRLPRPRPRPPPMPRP
shrunken log2 fold change: 0.46

RRIRYRPPRLPRPRPRPPQPPRP
shrunken log2 fold change: 0.436

RRIRYRPPRLPRPRPRPPRKPRP
shrunken log2 fold change: 0.319

RRIRYRPPRLPRPRPRPPRMPRP
shrunken log2 fold change: -0.215

RRIRYRPPRLPRPRPRPPRSPRP
shrunken log2 fold change: -0.148

RRIRYRPPRLPRPRPRPPSFPRP
shrunken log2 fold change: 0.0588

RRIRYRPPRLPRPRPRPPTRPRP
shrunken log2 fold change: 0.277

RRIRYRPPRLPRPRPRPPVRPRP
shrunken log2 fold change: 0.0631

RRIRYRPPRLPRPRPRPPWYPRP
shrunken log2 fold change: -0.786

RRIRYRPPRLPRPRPRPPYIPRP
shrunken log2 fold change: -0.496

RRIRYRPPRLPRPRPRPQCSPRP
shrunken log2 fold change: -0.73

RRIRYRPPRLPRPRPRPQDCPRP
shrunken log2 fold change: -0.363

RRIRYRPPRLPRPRPRPQDEPRP
shrunken log2 fold change: -0.0312

RRIRYRPPRLPRPRPRPQDKPRP
shrunken log2 fold change: -0.341

RRIRYRPPRLPRPRPRPQGKPRP
shrunken log2 fold change: -0.00664

RRIRYRPPRLPRPRPRPQGPPRP
shrunken log2 fold change: -0.0382

RRIRYRPPRLPRPRPRPQHGPRP
shrunken log2 fold change: -0.0664

RRIRYRPPRLPRPRPRPQHQPRP
shrunken log2 fold change: -0.304

RRIRYRPPRLPRPRPRPQHRPRP
shrunken log2 fold change: -0.602

RRIRYRPPRLPRPRPRPQIKPRP
shrunken log2 fold change: -0.969

RRIRYRPPRLPRPRPRPQIQPRP
shrunken log2 fold change: -0.473

RRIRYRPPRLPRPRPRPQMDPRP
shrunken log2 fold change: -0.801

RRIRYRPPRLPRPRPRPQMMPRP
shrunken log2 fold change: -0.536

RRIRYRPPRLPRPRPRPQMQPRP
shrunken log2 fold change: -0.794

RRIRYRPPRLPRPRPRPQMSPRP
shrunken log2 fold change: -0.0435

RRIRYRPPRLPRPRPRPQMYPRP
shrunken log2 fold change: -0.286

RRIRYRPPRLPRPRPRPQPMPRP
shrunken log2 fold change: -0.159

RRIRYRPPRLPRPRPRPQSNPRP
shrunken log2 fold change: -0.07

RRIRYRPPRLPRPRPRPQSVPRP
shrunken log2 fold change: -0.11

RRIRYRPPRLPRPRPRPQTCPRP
shrunken log2 fold change: -0.0146

RRIRYRPPRLPRPRPRPQTDPRP
shrunken log2 fold change: -0.274

RRIRYRPPRLPRPRPRPQVIPRP
shrunken log2 fold change: -0.0134

RRIRYRPPRLPRPRPRPQYSPRP
shrunken log2 fold change: -1.71

RRIRYRPPRLPRPRPRPREAPRP
shrunken log2 fold change: 0.469

RRIRYRPPRLPRPRPRPRGCPRP
shrunken log2 fold change: -0.286

RRIRYRPPRLPRPRPRPRGTPRP
shrunken log2 fold change: 0.173

RRIRYRPPRLPRPRPRPRHFPRP
shrunken log2 fold change: -0.209

RRIRYRPPRLPRPRPRPRIHPRP
shrunken log2 fold change: -0.287

RRIRYRPPRLPRPRPRPRKAPRP
shrunken log2 fold change: 0.00796

RRIRYRPPRLPRPRPRPRKDPRP
shrunken log2 fold change: -0.288

RRIRYRPPRLPRPRPRPRKLPRP
shrunken log2 fold change: -0.14

RRIRYRPPRLPRPRPRPRLRPRP
shrunken log2 fold change: 0.0744

RRIRYRPPRLPRPRPRPRMCPRP
shrunken log2 fold change: -0.0134

RRIRYRPPRLPRPRPRPRMSPRP
shrunken log2 fold change: 0.256

RRIRYRPPRLPRPRPRPRNTPRP
shrunken log2 fold change: -0.503

RRIRYRPPRLPRPRPRPRPKPRP
shrunken log2 fold change: 0.374

RRIRYRPPRLPRPRPRPRQSPRP
shrunken log2 fold change: -0.0113

RRIRYRPPRLPRPRPRPRRWPRP
shrunken log2 fold change: 0.309

RRIRYRPPRLPRPRPRPRSVPRP
shrunken log2 fold change: -0.0717

RRIRYRPPRLPRPRPRPRTPPRP
shrunken log2 fold change: -0.149

RRIRYRPPRLPRPRPRPRWFPRP
shrunken log2 fold change: -0.0532

RRIRYRPPRLPRPRPRPRWHPRP
shrunken log2 fold change: -0.124

RRIRYRPPRLPRPRPRPRWQPRP
shrunken log2 fold change: 0.033

RRIRYRPPRLPRPRPRPSAGPRP
shrunken log2 fold change: -0.165

RRIRYRPPRLPRPRPRPSDTPRP
shrunken log2 fold change: -1.27

RRIRYRPPRLPRPRPRPSDWPRP
shrunken log2 fold change: -0.152

RRIRYRPPRLPRPRPRPSETPRP
shrunken log2 fold change: -0.523

RRIRYRPPRLPRPRPRPSFDPRP
shrunken log2 fold change: -1.2

RRIRYRPPRLPRPRPRPSFIPRP
shrunken log2 fold change: -0.851

RRIRYRPPRLPRPRPRPSGQPRP
shrunken log2 fold change: -0.000925

RRIRYRPPRLPRPRPRPSICPRP
shrunken log2 fold change: -0.0533

RRIRYRPPRLPRPRPRPSIFPRP
shrunken log2 fold change: -0.654

RRIRYRPPRLPRPRPRPSIVPRP
shrunken log2 fold change: -0.912

RRIRYRPPRLPRPRPRPSKFPRP
shrunken log2 fold change: -0.299

RRIRYRPPRLPRPRPRPSLHPRP
shrunken log2 fold change: -0.622

RRIRYRPPRLPRPRPRPSLQPRP
shrunken log2 fold change: -0.126

RRIRYRPPRLPRPRPRPSNSPRP
shrunken log2 fold change: -1.15

RRIRYRPPRLPRPRPRPSPDPRP
shrunken log2 fold change: -0.0956

RRIRYRPPRLPRPRPRPSQNPRP
shrunken log2 fold change: -0.874

RRIRYRPPRLPRPRPRPSREPRP
shrunken log2 fold change: -0.0635

RRIRYRPPRLPRPRPRPSRIPRP
shrunken log2 fold change: 0.0535

RRIRYRPPRLPRPRPRPSRMPRP
shrunken log2 fold change: -0.303

RRIRYRPPRLPRPRPRPSSAPRP
shrunken log2 fold change: -0.197

RRIRYRPPRLPRPRPRPSSSPRP
shrunken log2 fold change: -0.166

RRIRYRPPRLPRPRPRPSTFPRP
shrunken log2 fold change: -0.282

RRIRYRPPRLPRPRPRPSTPPRP
shrunken log2 fold change: -0.24

RRIRYRPPRLPRPRPRPSTTPRP
shrunken log2 fold change: -0.717

RRIRYRPPRLPRPRPRPSTVPRP
shrunken log2 fold change: -0.0902

RRIRYRPPRLPRPRPRPSVYPRP
shrunken log2 fold change: -0.888

RRIRYRPPRLPRPRPRPSWKPRP
shrunken log2 fold change: -0.111

RRIRYRPPRLPRPRPRPSYIPRP
shrunken log2 fold change: -1.4

RRIRYRPPRLPRPRPRPTCHPRP
shrunken log2 fold change: -1.16

RRIRYRPPRLPRPRPRPTCYPRP
shrunken log2 fold change: -0.582

RRIRYRPPRLPRPRPRPTEEPRP
shrunken log2 fold change: -0.2

RRIRYRPPRLPRPRPRPTENPRP
shrunken log2 fold change: -0.239

RRIRYRPPRLPRPRPRPTEYPRP
shrunken log2 fold change: -0.204

RRIRYRPPRLPRPRPRPTFCPRP
shrunken log2 fold change: 0.115

RRIRYRPPRLPRPRPRPTFIPRP
shrunken log2 fold change: -0.0922

RRIRYRPPRLPRPRPRPTFTPRP
shrunken log2 fold change: -0.566

RRIRYRPPRLPRPRPRPTGNPRP
shrunken log2 fold change: -0.858

RRIRYRPPRLPRPRPRPTHAPRP
shrunken log2 fold change: -0.0504

RRIRYRPPRLPRPRPRPTHMPRP
shrunken log2 fold change: -0.429

RRIRYRPPRLPRPRPRPTHNPRP
shrunken log2 fold change: -0.702

RRIRYRPPRLPRPRPRPTIWPRP
shrunken log2 fold change: -0.196

RRIRYRPPRLPRPRPRPTKSPRP
shrunken log2 fold change: -0.517

RRIRYRPPRLPRPRPRPTKVPRP
shrunken log2 fold change: -0.235

RRIRYRPPRLPRPRPRPTLIPRP
shrunken log2 fold change: -0.743

RRIRYRPPRLPRPRPRPTMRPRP
shrunken log2 fold change: 0.243

RRIRYRPPRLPRPRPRPTMSPRP
shrunken log2 fold change: -0.0772

RRIRYRPPRLPRPRPRPTMTPRP
shrunken log2 fold change: -0.859

RRIRYRPPRLPRPRPRPTMVPRP
shrunken log2 fold change: -0.269

RRIRYRPPRLPRPRPRPTNCPRP
shrunken log2 fold change: -1.27

RRIRYRPPRLPRPRPRPTQEPRP
shrunken log2 fold change: 0.0039

RRIRYRPPRLPRPRPRPTQFPRP
shrunken log2 fold change: -0.558

RRIRYRPPRLPRPRPRPTQMPRP
shrunken log2 fold change: -0.213

RRIRYRPPRLPRPRPRPTRGPRP
shrunken log2 fold change: 0.543

RRIRYRPPRLPRPRPRPTRIPRP
shrunken log2 fold change: -0.0491

RRIRYRPPRLPRPRPRPTRWPRP
shrunken log2 fold change: 0.211

RRIRYRPPRLPRPRPRPTTDPRP
shrunken log2 fold change: -0.775

RRIRYRPPRLPRPRPRPTTPPRP
shrunken log2 fold change: -0.437

RRIRYRPPRLPRPRPRPTVLPRP
shrunken log2 fold change: 0.00488

RRIRYRPPRLPRPRPRPTWDPRP
shrunken log2 fold change: 0.114

RRIRYRPPRLPRPRPRPTWGPRP
shrunken log2 fold change: -0.19

RRIRYRPPRLPRPRPRPTWMPRP
shrunken log2 fold change: 0.0576

RRIRYRPPRLPRPRPRPVCAPRP
shrunken log2 fold change: -0.232

RRIRYRPPRLPRPRPRPVCMPRP
shrunken log2 fold change: -0.314

RRIRYRPPRLPRPRPRPVEAPRP
shrunken log2 fold change: -0.35

RRIRYRPPRLPRPRPRPVEKPRP
shrunken log2 fold change: -0.129

RRIRYRPPRLPRPRPRPVFAPRP
shrunken log2 fold change: 0.0473

RRIRYRPPRLPRPRPRPVFEPRP
shrunken log2 fold change: 0.0623

RRIRYRPPRLPRPRPRPVHEPRP
shrunken log2 fold change: 0.0155

RRIRYRPPRLPRPRPRPVIGPRP
shrunken log2 fold change: -0.661

RRIRYRPPRLPRPRPRPVIRPRP
shrunken log2 fold change: -0.139

RRIRYRPPRLPRPRPRPVKRPRP
shrunken log2 fold change: -0.00146

RRIRYRPPRLPRPRPRPVLTPRP
shrunken log2 fold change: -0.0151

RRIRYRPPRLPRPRPRPVMVPRP
shrunken log2 fold change: -0.139

RRIRYRPPRLPRPRPRPVNDPRP
shrunken log2 fold change: -0.24

RRIRYRPPRLPRPRPRPVPRPRP
shrunken log2 fold change: 0.204

RRIRYRPPRLPRPRPRPVQLPRP
shrunken log2 fold change: -0.779

RRIRYRPPRLPRPRPRPVSAPRP
shrunken log2 fold change: -0.332

RRIRYRPPRLPRPRPRPVSHPRP
shrunken log2 fold change: -0.00492

RRIRYRPPRLPRPRPRPVSKPRP
shrunken log2 fold change: -0.069

RRIRYRPPRLPRPRPRPVSLPRP
shrunken log2 fold change: -0.267

RRIRYRPPRLPRPRPRPVTVPRP
shrunken log2 fold change: -0.302

RRIRYRPPRLPRPRPRPVVRPRP
shrunken log2 fold change: -0.203

RRIRYRPPRLPRPRPRPVVWPRP
shrunken log2 fold change: -0.00976

RRIRYRPPRLPRPRPRPVYPPRP
shrunken log2 fold change: -0.208

RRIRYRPPRLPRPRPRPWACPRP
shrunken log2 fold change: -0.263

RRIRYRPPRLPRPRPRPWAQPRP
shrunken log2 fold change: -0.37

RRIRYRPPRLPRPRPRPWCFPRP
shrunken log2 fold change: -0.369

RRIRYRPPRLPRPRPRPWDCPRP
shrunken log2 fold change: -0.00865

RRIRYRPPRLPRPRPRPWDGPRP
shrunken log2 fold change: -0.196

RRIRYRPPRLPRPRPRPWDSPRP
shrunken log2 fold change: -0.00191

RRIRYRPPRLPRPRPRPWGQPRP
shrunken log2 fold change: 0.00911

RRIRYRPPRLPRPRPRPWHRPRP
shrunken log2 fold change: -0.172

RRIRYRPPRLPRPRPRPWIFPRP
shrunken log2 fold change: -0.505

RRIRYRPPRLPRPRPRPWLAPRP
shrunken log2 fold change: 0.00503

RRIRYRPPRLPRPRPRPWLIPRP
shrunken log2 fold change: -0.204

RRIRYRPPRLPRPRPRPWLRPRP
shrunken log2 fold change: 0.0188

RRIRYRPPRLPRPRPRPWMFPRP
shrunken log2 fold change: -0.273

Source: the supplement of paper PMC9112550, “Optimization of the antimicrobial peptide Bac7 by deep mutational scanning” (BMC Biology, 2022)
